Reference: patent publication US20230357735, “PROGRAMMABLE NUCLEASES AND METHODS OF USE” (Mammoth Biosciences, Inc., published 2023)

T1: CasΦ.12 (in cells) (Unknown)
T1 chain: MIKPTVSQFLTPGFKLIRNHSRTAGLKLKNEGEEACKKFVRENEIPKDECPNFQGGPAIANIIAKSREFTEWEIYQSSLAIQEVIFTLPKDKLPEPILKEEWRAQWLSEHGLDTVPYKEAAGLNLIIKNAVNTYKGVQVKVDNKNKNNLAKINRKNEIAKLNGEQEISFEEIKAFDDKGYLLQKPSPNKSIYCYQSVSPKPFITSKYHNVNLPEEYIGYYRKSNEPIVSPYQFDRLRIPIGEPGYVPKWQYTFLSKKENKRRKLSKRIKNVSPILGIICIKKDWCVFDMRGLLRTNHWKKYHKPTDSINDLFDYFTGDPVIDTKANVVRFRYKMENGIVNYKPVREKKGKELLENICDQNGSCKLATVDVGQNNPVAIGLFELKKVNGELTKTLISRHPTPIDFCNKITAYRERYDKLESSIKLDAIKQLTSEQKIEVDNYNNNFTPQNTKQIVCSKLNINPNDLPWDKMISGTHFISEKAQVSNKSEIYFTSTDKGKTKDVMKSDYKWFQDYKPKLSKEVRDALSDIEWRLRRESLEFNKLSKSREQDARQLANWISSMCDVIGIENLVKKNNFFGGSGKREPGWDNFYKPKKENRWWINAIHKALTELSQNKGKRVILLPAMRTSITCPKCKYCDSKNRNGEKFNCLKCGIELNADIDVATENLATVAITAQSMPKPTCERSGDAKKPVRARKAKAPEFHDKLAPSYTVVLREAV


Target: T1, CasΦ.12 (in cells)
Assay: cell_activity; T cells, RNP nucleofection; PAM NTTN
Method: This example illustrates the ability of CasΦ RNP complexes to knockout multiple genes simultaneously. In this study, gRNAs targeting B2M, TRAC and PDCD1 (provided in Table 15) were incubated with CasΦ.12 (SEQ ID NO: 12) for 10 minutes at room temperature to form B2M, TRAC, and PDC1 targeting RNPs, respectively. The B2M targeting RNPs, TRAC targeting RNPs, PDCD1 targeting RNPs and combinations thereof were added to T cells. T cells were resuspended at 5×10⁵ cells/20 μL in Nucleofection P3 solution and an Amaxa 4D 96-well electroporation system with pulse code EH115 was used to nucleofect the cells. Immediately after nucleofection, 85 μl pre-warmed culture medium was added to each well. The cells were then left in the cuvette plate for 10 minutes before transfer to the culture plate. On Day 3, genomic DNA was extracted and sent for NGS sequencing and the % indel was measured with a positive % indel being indicative of % knockout. On Day 5, cells were harvested for flow cytometry and the % knockout was measured with fluorescently labeled antibodies to TRAC and B2M (antibody to PDCD1 unavailable). % indel results are presented in Table 16 and flow cytometry data presented in Table 17.

Binder | activity [% indel]
TRAC gRNA R3042 ; TRAC target (ssRNA ; dsDNA) RNA: CUUUCAAGACUAAUAGAUUGCUCCUUACGAGGAGACGAGUCUCUCAGCUGGUACAC DNA 1: GAGTCTCTCAGCTGGTACAC DNA 2: GTGTACCAGCTGAGAGACTC | 77.6
PDCD1 gRNA R2925 ; PDCD1 target (ssRNA ; dsDNA) RNA: CUUUCAAGACUAAUAGAUUGCUCCUUACGAGGAGACUAGCACCGCCCAGACGACUG DNA 1: TAGCACCGCCCAGACGACTG DNA 2: CAGTCGTCTGGGCGGTGCTA | 44.6
B2M gRNA R3132 ; B2M target (ssRNA ; dsDNA) RNA: CUUUCAAGACUAAUAGAUUGCUCCUUACGAGGAGACAGCAAGGACUGGUCUUUCUA DNA 1: AGCAAGGACTGGTCTTTCTA DNA 2: TAGAAAGACCAGTCCTTGCT | 85.5
